Data from US20140274797.

System: specific peptide sequence that is a substrate for MMP-9 (Lys-Gly-Pro-Arg-Ser-Leu-Ser-Gly-Lys)

metalloproteinase-9 (MMP-9)
cleavage of the donor/acceptor-labelled peptide (loss of FRET, colour change): Addition of MMP-9 cleaves the peptide separating donor and acceptor
